Assay results from patent publication JP2000154149A (dated 2000).

T1: ヒトFas抗原 on human lymphocyte cell line HPB-ALL (human, UniProt P25445 26-335)
T1 sequence (looked up): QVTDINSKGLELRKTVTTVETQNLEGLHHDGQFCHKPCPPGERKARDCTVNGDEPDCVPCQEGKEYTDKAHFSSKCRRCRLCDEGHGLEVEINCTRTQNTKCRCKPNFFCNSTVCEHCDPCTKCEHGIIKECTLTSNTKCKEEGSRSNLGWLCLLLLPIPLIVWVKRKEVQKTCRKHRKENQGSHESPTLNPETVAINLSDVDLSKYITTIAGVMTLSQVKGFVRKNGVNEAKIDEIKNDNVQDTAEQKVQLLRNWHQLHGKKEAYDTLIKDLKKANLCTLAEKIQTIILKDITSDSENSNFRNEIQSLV

B1: マウス抗ヒトFas抗体CH11(MBL社) (antibody, mouse IgM)
heavy: EVQLQQSGPELVKPGASVKISCKASGYTFTDYNMHWVKQSHGKSLEWIGYIYPYNGGTGYNQKFKSKATLTVDNSSSTAYMELRSLTSEDSAVYYCARSYYAMDYWGQGTSVTVSSESQSFPNVFPLVSCESPLSDKNLVAMGCLARDFLPSTISFTWNYQNNTEVIQGIRTFPTLRTGGKYLATSQVLLSPKSILEGSDEYLVCKIHYGGKNRDLHVPIPAVAEMNPNVNVFVPPRDGFSGPAPRKSKLICEATNFTPKPITVSWLKDGKLVESGFTTDPVTIENKGSTPQTYKVISTLTISEIDWLNLNVYTCRVDHRGLTFLKNVSSTCAASPSTDILTFTIPPSFADIFLSKSANLTCLVSNLATYETLNISWASQSGEPLETKIKIMESHPNGTFSAKGVASVCVEDWNNRKEFVCTVTHRDLPSPQKKFISKPNEVHKHPPAVYLLPPAREQLNLRESATVTCLVKGFSPADISVQWLQRGQLLPQEKYVTSAPMPEPGAPGFYFTHSILTVTEEEWNSGETYTCVVGHEALPHLVTERTVDKSTGKPTLYNVSLIMSDTGGTCY
light: DVVMTQSPLSLPVSLGDQASISCRSSKSLVHSNGNTYLHWYLQKPGQSPKLLIYKVSNRFSGVPDRFSGSGSGTDFTLKISRVEAEDLGVYFCSQSTHVPPAFGGGTKLEIKRADAAPTVSIFPPSSEQLTSGGASVVCFLNNFYPKDINVKWKIDGSERQNGVLNSWTDQDSKDSTYSMSSTLTLTKDEYERHNSYTCEATHKTSTSPIVKSFNRNEC
chain: DDEATILADNKCMCTRVTSRIIPSTEDPNEDIVERNIRIVVPLNNRENISDPTSPLRRNFVYHLSDVCKKCDPVEVELEDQVVTATQSNICNEDDGVPETCYMYDRNKCYTTMVPLRYHGETKMVQAALTPDSCYPD
B2: 抗ヒトFasヒト化抗体 [B] (expression product of pHμM1-1 and pHκKY2-58 in COS-7 cells; HμM heavy chain + VL-KY light chain) (antibody)
heavy: EVQLVQSGAEVKKPGASVKVSCKASGYTFTDYNMHWVKQAHGKSLEWMGYIYPYNGGTGYNQKFKSKATLTVDNSASTAYMELSSLRSEDTAVYYCARSYYAMDYWGQGTLVTVSSGSASAPTLFPLVSCENSPSDTSSVAVGCLAQDFLPDSITFSWKYKNNSDISSTRGFPSVLRGGKYAATSQVLLPSKDVMQGTDEHVVCKVQHPNGNKEKNVPLPVIAELPPKVSVFVPPRDGFFGNPRKSKLICQATGFSPRQIQVSWLREGKQVGSGVTTDQVQAEAKESGPTTYKVTSTLTIKESDWLSQSMFTCRVDHRGLTFQQNASSMCVPDQDTAIRVFAIPPSFASIFLTKSTKLTCLVTDLTTYDSVTISWTRQNGEAVKTHTNISESHPNATFSAVGEASICEDDWNSGERFTCTVTHTDLPSPLKQTISRPKGVALHRPDVYLLPPAREQLNLRESATITCLVTGFSPADVFVQWMQRGQPLSPEKYVTSAPMPEPQAPGRYFAHSILTVSEEEWNTGETYICVVAHEALPNRVTERTVDKSTGKPTLYNVSLVMSDTAGTCY
light: DVVMTQSPLSLPVTLGQPASISCRSSKSLVHSNGNTYLHWYLQKPGQSPKLLIYKVSNRFSGVPDRFSGSGSGTDFTLKISRVEAEDVGVYYCSQSTHVPPAFGQGTKVEIKRTVAAPSVFIFPPSDEQLKSGTASVVCLLNNFYPREAKVQWKVDNALQSGNSQESVTEQDSKDSTYSLSSTLTLSKADYEKHKVYACEVTHQGLSSPVTKSFNRGEC
B3: 抗ヒトFasヒト化抗体 [I] (expression product of pHμH5-1 and pHκRF2-52 in COS-7 cells; HμH heavy chain + VL-RF light chain) (antibody)
heavy: EVQLVQSGAEVKKPGASVKVSCKASGYTFTDYNMHWVRQAPGQGLEWMGYIYPYNGGTGYNQKFKSKATLTVDNSASTAYMELSSLRSEDTAVYYCARSYYAMDYWGQGTLVTVSSGSASAPTLFPLVSCENSPSDTSSVAVGCLAQDFLPDSITFSWKYKNNSDISSTRGFPSVLRGGKYAATSQVLLPSKDVMQGTDEHVVCKVQHPNGNKEKNVPLPVIAELPPKVSVFVPPRDGFFGNPRKSKLICQATGFSPRQIQVSWLREGKQVGSGVTTDQVQAEAKESGPTTYKVTSTLTIKESDWLSQSMFTCRVDHRGLTFQQNASSMCVPDQDTAIRVFAIPPSFASIFLTKSTKLTCLVTDLTTYDSVTISWTRQNGEAVKTHTNISESHPNATFSAVGEASICEDDWNSGERFTCTVTHTDLPSPLKQTISRPKGVALHRPDVYLLPPAREQLNLRESATITCLVTGFSPADVFVQWMQRGQPLSPEKYVTSAPMPEPQAPGRYFAHSILTVSEEEWNTGETYICVVAHEALPNRVTERTVDKSTGKPTLYNVSLVMSDTAGTCY
light: DVVMTQSPLSLPVTLGQPASISCRSSKSLVHSNGNTYLHWYLQKPGQSPRLLIYKVSNRFSGVPDRFSGSGSGTDFTLKISRVEAEDVGVYFCSQSTHVPPAFGQGTKVEIKRTVAAPSVFIFPPSDEQLKSGTASVVCLLNNFYPREAKVQWKVDNALQSGNSQESVTEQDSKDSTYSLSSTLTLSKADYEKHKVYACEVTHQGLSSPVTKSFNRGEC
B4: 抗ヒトFasヒト化抗体 [E] (expression product of pHμM1-1 and pHκRF2-52 in COS-7 cells; HμM heavy chain + VL-RF light chain) (antibody)
heavy: EVQLVQSGAEVKKPGASVKVSCKASGYTFTDYNMHWVKQAHGKSLEWMGYIYPYNGGTGYNQKFKSKATLTVDNSASTAYMELSSLRSEDTAVYYCARSYYAMDYWGQGTLVTVSSGSASAPTLFPLVSCENSPSDTSSVAVGCLAQDFLPDSITFSWKYKNNSDISSTRGFPSVLRGGKYAATSQVLLPSKDVMQGTDEHVVCKVQHPNGNKEKNVPLPVIAELPPKVSVFVPPRDGFFGNPRKSKLICQATGFSPRQIQVSWLREGKQVGSGVTTDQVQAEAKESGPTTYKVTSTLTIKESDWLSQSMFTCRVDHRGLTFQQNASSMCVPDQDTAIRVFAIPPSFASIFLTKSTKLTCLVTDLTTYDSVTISWTRQNGEAVKTHTNISESHPNATFSAVGEASICEDDWNSGERFTCTVTHTDLPSPLKQTISRPKGVALHRPDVYLLPPAREQLNLRESATITCLVTGFSPADVFVQWMQRGQPLSPEKYVTSAPMPEPQAPGRYFAHSILTVSEEEWNTGETYICVVAHEALPNRVTERTVDKSTGKPTLYNVSLVMSDTAGTCY
light: DVVMTQSPLSLPVTLGQPASISCRSSKSLVHSNGNTYLHWYLQKPGQSPRLLIYKVSNRFSGVPDRFSGSGSGTDFTLKISRVEAEDVGVYFCSQSTHVPPAFGQGTKVEIKRTVAAPSVFIFPPSDEQLKSGTASVVCLLNNFYPREAKVQWKVDNALQSGNSQESVTEQDSKDSTYSLSSTLTLSKADYEKHKVYACEVTHQGLSSPVTKSFNRGEC
B5: 抗ヒトFasヒト化抗体 [G] (expression product of pHμH5-1 and pHκKF2-19 in COS-7 cells; HμH heavy chain + VL-KF light chain) (antibody)
heavy: EVQLVQSGAEVKKPGASVKVSCKASGYTFTDYNMHWVRQAPGQGLEWMGYIYPYNGGTGYNQKFKSKATLTVDNSASTAYMELSSLRSEDTAVYYCARSYYAMDYWGQGTLVTVSSGSASAPTLFPLVSCENSPSDTSSVAVGCLAQDFLPDSITFSWKYKNNSDISSTRGFPSVLRGGKYAATSQVLLPSKDVMQGTDEHVVCKVQHPNGNKEKNVPLPVIAELPPKVSVFVPPRDGFFGNPRKSKLICQATGFSPRQIQVSWLREGKQVGSGVTTDQVQAEAKESGPTTYKVTSTLTIKESDWLSQSMFTCRVDHRGLTFQQNASSMCVPDQDTAIRVFAIPPSFASIFLTKSTKLTCLVTDLTTYDSVTISWTRQNGEAVKTHTNISESHPNATFSAVGEASICEDDWNSGERFTCTVTHTDLPSPLKQTISRPKGVALHRPDVYLLPPAREQLNLRESATITCLVTGFSPADVFVQWMQRGQPLSPEKYVTSAPMPEPQAPGRYFAHSILTVSEEEWNTGETYICVVAHEALPNRVTERTVDKSTGKPTLYNVSLVMSDTAGTCY
light: DVVMTQSPLSLPVTLGQPASISCRSSKSLVHSNGNTYLHWYLQKPGQSPKLLIYKVSNRFSGVPDRFSGSGSGTDFTLKISRVEAEDVGVYFCSQSTHVPPAFGQGTKVEIKRTVAAPSVFIFPPSDEQLKSGTASVVCLLNNFYPREAKVQWKVDNALQSGNSQESVTEQDSKDSTYSLSSTLTLSKADYEKHKVYACEVTHQGLSSPVTKSFNRGEC
B6: 抗ヒトFasヒト化抗体 [D] (expression product of pHμM1-1 and pHκRY2-10 in COS-7 cells; HμM heavy chain + VL-RY light chain) (antibody)
heavy: EVQLVQSGAEVKKPGASVKVSCKASGYTFTDYNMHWVKQAHGKSLEWMGYIYPYNGGTGYNQKFKSKATLTVDNSASTAYMELSSLRSEDTAVYYCARSYYAMDYWGQGTLVTVSSGSASAPTLFPLVSCENSPSDTSSVAVGCLAQDFLPDSITFSWKYKNNSDISSTRGFPSVLRGGKYAATSQVLLPSKDVMQGTDEHVVCKVQHPNGNKEKNVPLPVIAELPPKVSVFVPPRDGFFGNPRKSKLICQATGFSPRQIQVSWLREGKQVGSGVTTDQVQAEAKESGPTTYKVTSTLTIKESDWLSQSMFTCRVDHRGLTFQQNASSMCVPDQDTAIRVFAIPPSFASIFLTKSTKLTCLVTDLTTYDSVTISWTRQNGEAVKTHTNISESHPNATFSAVGEASICEDDWNSGERFTCTVTHTDLPSPLKQTISRPKGVALHRPDVYLLPPAREQLNLRESATITCLVTGFSPADVFVQWMQRGQPLSPEKYVTSAPMPEPQAPGRYFAHSILTVSEEEWNTGETYICVVAHEALPNRVTERTVDKSTGKPTLYNVSLVMSDTAGTCY
light: DVVMTQSPLSLPVTLGQPASISCRSSKSLVHSNGNTYLHWYLQKPGQSPRLLIYKVSNRFSGVPDRFSGSGSGTDFTLKISRVEAEDVGVYYCSQSTHVPPAFGQGTKVEIKRTVAAPSVFIFPPSDEQLKSGTASVVCLLNNFYPREAKVQWKVDNALQSGNSQESVTEQDSKDSTYSLSSTLTLSKADYEKHKVYACEVTHQGLSSPVTKSFNRGEC
B7: 抗ヒトFasヒト化抗体 [C] (expression product of pHμM1-1 and pHκKF2-19 in COS-7 cells; HμM heavy chain + VL-KF light chain) (antibody)
heavy: EVQLVQSGAEVKKPGASVKVSCKASGYTFTDYNMHWVKQAHGKSLEWMGYIYPYNGGTGYNQKFKSKATLTVDNSASTAYMELSSLRSEDTAVYYCARSYYAMDYWGQGTLVTVSSGSASAPTLFPLVSCENSPSDTSSVAVGCLAQDFLPDSITFSWKYKNNSDISSTRGFPSVLRGGKYAATSQVLLPSKDVMQGTDEHVVCKVQHPNGNKEKNVPLPVIAELPPKVSVFVPPRDGFFGNPRKSKLICQATGFSPRQIQVSWLREGKQVGSGVTTDQVQAEAKESGPTTYKVTSTLTIKESDWLSQSMFTCRVDHRGLTFQQNASSMCVPDQDTAIRVFAIPPSFASIFLTKSTKLTCLVTDLTTYDSVTISWTRQNGEAVKTHTNISESHPNATFSAVGEASICEDDWNSGERFTCTVTHTDLPSPLKQTISRPKGVALHRPDVYLLPPAREQLNLRESATITCLVTGFSPADVFVQWMQRGQPLSPEKYVTSAPMPEPQAPGRYFAHSILTVSEEEWNTGETYICVVAHEALPNRVTERTVDKSTGKPTLYNVSLVMSDTAGTCY
light: DVVMTQSPLSLPVTLGQPASISCRSSKSLVHSNGNTYLHWYLQKPGQSPKLLIYKVSNRFSGVPDRFSGSGSGTDFTLKISRVEAEDVGVYFCSQSTHVPPAFGQGTKVEIKRTVAAPSVFIFPPSDEQLKSGTASVVCLLNNFYPREAKVQWKVDNALQSGNSQESVTEQDSKDSTYSLSSTLTLSKADYEKHKVYACEVTHQGLSSPVTKSFNRGEC

target: T1, ヒトFas抗原 on human lymphocyte cell line …; experiment: cell-based or functional assay

Row | Binder | ED 50 (IgM concentration at which HPB-ALL cell survival is 50%), 細胞障害活性 [ng/mL]
1 | B1 | 10.7
2 | B2 | 1.1
3 | B3 | 3.4
4 | B4 | 1.5
5 | B5 | 2.4
6 | B6 | 1.7
7 | B7 | 1
